From patent US9637543B2, “HER3 antibodies and uses thereof” (THE UAB RESEARCH FOUNDATION, priority 2011, dated 2017)
Entries after “also recorded” stand apart in the source; their conditions may differ.

Assays:
[1] = system: A549 human lung cancer xenograft; test: A549 human lung cancer xenograft model; assay type: in vivo
HER2 [2] = target: T1, HER2 (Homo sapiens, UniProt P04626); test: HER2 tyrosine phosphorylation ELISA, antibodies with or without lapatinib; assay type: cell-based; parameters: endogenous in cells; host or cells: N87 gastric cancer cells; ZR75-30 breast cancer cells; conditions: 24 hours, without lapatinib
HER3 [3] = target: T2, HER3 (Homo sapiens, UniProt P21860); test: HER3 autophosphorylation in pancreatic cancer cell lines; assay type: cell-based; parameters: endogenous in cells; host or cells: N87, BT474, ZR75-30, Panc 2.03, A549 and a panel of human cancer cell lines; conditions: single agents
T2 sequence (P21860 20-1342): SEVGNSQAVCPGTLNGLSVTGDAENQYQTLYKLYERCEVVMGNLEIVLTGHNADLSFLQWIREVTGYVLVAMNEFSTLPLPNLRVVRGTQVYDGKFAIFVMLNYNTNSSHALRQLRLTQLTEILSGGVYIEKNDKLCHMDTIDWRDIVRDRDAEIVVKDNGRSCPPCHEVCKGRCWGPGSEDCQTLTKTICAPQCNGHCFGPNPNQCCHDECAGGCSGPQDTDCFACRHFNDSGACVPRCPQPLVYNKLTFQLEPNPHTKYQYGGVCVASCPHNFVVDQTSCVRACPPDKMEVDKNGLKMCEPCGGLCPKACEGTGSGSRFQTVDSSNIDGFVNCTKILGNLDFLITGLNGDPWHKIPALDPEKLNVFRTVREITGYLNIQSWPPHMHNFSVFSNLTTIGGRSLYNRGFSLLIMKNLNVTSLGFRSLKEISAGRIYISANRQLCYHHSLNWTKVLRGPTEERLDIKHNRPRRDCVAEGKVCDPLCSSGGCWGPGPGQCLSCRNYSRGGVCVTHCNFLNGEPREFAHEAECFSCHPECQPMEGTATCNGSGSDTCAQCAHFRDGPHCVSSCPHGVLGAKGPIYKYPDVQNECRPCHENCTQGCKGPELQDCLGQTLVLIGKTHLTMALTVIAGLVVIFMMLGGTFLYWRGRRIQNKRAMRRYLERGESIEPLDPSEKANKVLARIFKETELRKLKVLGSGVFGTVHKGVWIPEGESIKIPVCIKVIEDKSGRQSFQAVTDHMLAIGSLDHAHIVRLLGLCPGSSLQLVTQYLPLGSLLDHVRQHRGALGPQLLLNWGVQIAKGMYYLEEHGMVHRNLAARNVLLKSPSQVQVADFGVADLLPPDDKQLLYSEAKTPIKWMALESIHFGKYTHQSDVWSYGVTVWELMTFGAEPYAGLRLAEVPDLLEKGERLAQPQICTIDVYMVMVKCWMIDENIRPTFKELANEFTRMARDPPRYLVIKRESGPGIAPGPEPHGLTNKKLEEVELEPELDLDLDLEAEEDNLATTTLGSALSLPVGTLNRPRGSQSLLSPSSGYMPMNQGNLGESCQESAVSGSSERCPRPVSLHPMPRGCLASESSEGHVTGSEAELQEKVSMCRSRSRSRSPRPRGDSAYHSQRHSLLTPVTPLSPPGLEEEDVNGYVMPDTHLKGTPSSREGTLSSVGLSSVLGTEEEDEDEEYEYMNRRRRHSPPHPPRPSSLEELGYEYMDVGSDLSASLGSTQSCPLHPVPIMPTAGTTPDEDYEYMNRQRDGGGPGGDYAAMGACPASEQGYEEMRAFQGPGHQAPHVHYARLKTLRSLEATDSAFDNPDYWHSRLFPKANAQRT

HER3 [4] = target: T2, HER3; test: HER3 tyrosine phosphorylation ELISA, antibodies with or without tyrosine kinase inhibitor; assay type: cell-based; parameters: endogenous in cells; host or cells: N87; tyrosine phosphorylation of HER3: dose or concentration left out as unconfirmed; conditions: 24 hours; for tyrosine phosphorylation levels of HER3: 20 μg/ml antibody
[5] = system: HT29 human colon cancer xenograft; test: HT29 human colon cancer xenograft model; assay type: in vivo
HER3 [6] = target: T2, HER3; test: Ligand-dependent (NRG1) activation of HER3 in cancer cells, ELISA; assay type: cell-based; parameters: endogenous in cells; host or cells: N87, BT474, ZR75-30, Panc 2.03; conditions: N87, BT474, ZR75-30, Panc 2.03 cells; antibody 24 hours, then 100 pg/ml NRG1 1 hour
Description: (§1) The ELISA plate was coated with 3F8 anti-HER3 antibody (recognizing a different epitope than 1A5 and 3D4) to capture total HER3.
as §1
An ELISA plate was coated with 3F8 anti-HER3 antibody to capture total HER3.

[7] = target: T3, HER3-transfected SP 2/0 cells (Homo sapiens, UniProt P21860); test: Flow cytometry binding specificity on transfected SP 2/0 cells; conditions: EGFR, HER2 or HER3 transfected SP2/0 cells, 1 μg/ml purified antibody
T3 construct: expressed in transfected cells; host or cells: SP 2/0 cells
T3 sequence (P21860 20-1342): as above
Protocol: (§2) The average OD values of triplicates are presented. The values for egFR are superimposed on the values for HER2. […] EGFR, HER2 or HER3-transfected SP 2/0 cells were stained with 1 μg/ml of purified antibody, followed by PE-goat anti-mouse IgG.
(§3) An ELISA plate was coated with 1 μg/ml of recombinant soluble EGFR, HER2, or the extracellular domain of HER3.

[8] = system: DR5-apoptosis resistant human breast cancer ZR75-1 cell line; test: Functional screen for apoptosis of DR5-resistant cells; assay type: cell-based; conditions: in the presence of an agonistic DR5-antibody selected from TRA-8 or CTB006
Description: In a functional screen of a hybridoma library made against the DR5-apoptosis resistant human breast cancer ZR75-1 cell line, the 1A5 antibody was identified. […] The target of the 1A5 antibody was identified to be HER3 by immunoprecipitation with the 1A5 antibody and subsequent mass spectrometry analysis.

HER2 [9] = target: T1, HER2; test: HER2 autophosphorylation in pancreatic cancer cell lines; assay type: cell-based; parameters: endogenous in cells
[10] = system: MKN28 human gastric cancer xenograft; test: MKN28 human gastric cancer xenograft model; assay type: in vivo; conditions: in combination with lapatinib
HER3 [11] = target: T2, HER3; test: Ligand-independent activation (autophosphorylation) of HER3 in cancer cells, ELISA; assay type: cell-based; parameters: endogenous in cells; host or cells: N87, BT474, ZR75-30, Panc 2.03
Protocol: The ELISA plate was coated with 3F8 anti-HER3 antibody (recognizing a different epitope than 1A5 and 3D4) to capture total HER3 (Total HER3, right graph for FIGS. 4A-4D). […] The total HER3 was detected by HRP-conjugated 1E8 anti-HER3 antibody. The tyrosine-phosphorylated HER3 and total HER3 levels were then measured by chemiluminescence.
The ELISA plate was coated with 3F8 anti-HER3 antibody (recognizing a different epitope than the 1A5 antibody) to capture total HER3.

recombinant soluble HER3 [12] = target: T4, recombinant soluble HER3 (Homo sapiens, UniProt P21860); test: Sandwich ELISA for epitopes (1A5 capture, HRP-3D4 detection); assay type: binding; conditions: plate coated with 2 μg/ml 1A5, 200 ng/ml HRP-conjugated 3D4
T4 construct: coated with 1 μg/ml of recombinant soluble HER3
T4 sequence (P21860 20-643 limits assumed): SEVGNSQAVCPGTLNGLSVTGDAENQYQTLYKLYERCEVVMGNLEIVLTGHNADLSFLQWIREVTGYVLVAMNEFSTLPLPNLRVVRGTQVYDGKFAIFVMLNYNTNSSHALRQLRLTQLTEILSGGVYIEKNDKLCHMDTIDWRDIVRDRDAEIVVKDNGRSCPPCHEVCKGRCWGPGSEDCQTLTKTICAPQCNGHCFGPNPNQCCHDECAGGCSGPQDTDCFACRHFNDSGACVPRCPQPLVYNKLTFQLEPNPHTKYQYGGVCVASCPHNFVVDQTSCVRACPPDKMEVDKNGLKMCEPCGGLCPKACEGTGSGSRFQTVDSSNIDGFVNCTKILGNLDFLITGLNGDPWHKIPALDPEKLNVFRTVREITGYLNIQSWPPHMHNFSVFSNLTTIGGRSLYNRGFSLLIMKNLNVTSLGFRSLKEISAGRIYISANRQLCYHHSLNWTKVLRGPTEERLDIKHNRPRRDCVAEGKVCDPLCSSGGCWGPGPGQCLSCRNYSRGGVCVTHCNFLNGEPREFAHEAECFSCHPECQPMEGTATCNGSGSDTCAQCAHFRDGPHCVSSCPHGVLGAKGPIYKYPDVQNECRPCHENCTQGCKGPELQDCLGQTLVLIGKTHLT
Protocol: An ELISA plate was coated with 2 μg/ml of purified 1A5 and then incubated with indicated concentrations of recombinant soluble HER3 in the presence of 200 ng/ml HRP-conjugated 3D4. The binding of 3D4 to HER3 was detected by chemiluminescence substrate. The average counts per second of triplicates are presented.
An ELISA plate was coated with 2 μg/ml of purified 1A5 and then incubated with increasing concentrations of HER3 in the presence of 200 ng/ml HRP-conjugated 3D4. The binding of 3D4 antibody to HER3 was detected by chemiluminescence.

[13] = target: T5, HER3 (extracellular domain) (Homo sapiens, UniProt P21860); test: ELISA binding specificity on recombinant soluble EGFR, HER2, HER3; conditions: plate coated with 1 μg/ml recombinant soluble EGFR, HER2 or HER3 extracellular domain
T5 construct: recombinant soluble EGFR, HER2, or the extracellular domain of HER3
T5 sequence (P21860 20-643 limits assumed): as above
Protocol: as §2, §3

[14] = target: T3, HER3-transfected SP 2/0 cells; test: Flow cytometry for blocking of NRG1 binding to HER3; conditions: 100 ng/ml biotin-conjugated NRG1, increasing antibody concentrations
Description: (§4) The binding of NRG1 to HER3 (vertical axis) was detected by HRP-streptavidin. […] NRG1 binding was detected by PE-streptavidin. The mean fluorescent intensities (MFI) of NRG1 bound are presented.
(§5) The binding of NRG1 to HER3 was detected by HRP-streptavidin. […] Thus, the 1A5 antibody is herein referred to as a ligand-independent antibody. […] Thus, the 3D4 antibody is herein referred to as a ligand-dependent antibody. […] NRG1 binding was detected by PE-streptavidin.

EGFR [15] = target: T6, EGFR (Homo sapiens, UniProt P00533); test: EGFR tyrosine phosphorylation ELISA, antibodies with or without tyrosine kinase inhibitor; conditions: 24 hours
recombinant soluble HER3 [16] = target: T4, recombinant soluble HER3; test: ELISA for blocking of NRG1 binding to HER3; conditions: 100 ng/ml biotin-conjugated NRG1, increasing antibody concentrations
Description: as §4, §5

EGFR [17] = target: T6, EGFR; test: EGFR autophosphorylation in pancreatic cancer cell lines; assay type: cell-based; parameters: endogenous in cells; host or cells: panel of eight pancreatic cancer cell lines
[18] = system: N87 human gastric cancer xenograft; test: N87 human gastric cancer xenograft model; assay type: in vivo; conditions: in combination with lapatinib

tyrosine phosphorylation levels of HER3, effect of adding Erlotinib (HER3 [4]; A549 cells, 20 μg/ml antibody with 100 nM Erlotinib): enhanced
tyrosine phosphorylation of HER3, effect of adding lapatinib (HER3 [4]; N87 cells, with 100 nM lapatinib): enhanced
tyrosine phosphorylation levels of HER3, effect of adding lapatinib (HER3 [4]; ZR75-30 cells, 20 μg/ml antibody with 100 nM lapatinib): enhanced
binding specificity by flow cytometry [7]: specifically bind HER3
B1: 1A5: ligand-independent HER3 antibody; heavy chain variable region SEQ ID NO:1, light chain variable region SEQ ID NO:2 (antibody, V domains shown)
VH: MEWIWIFLFIFSGTAGVHSQVQLQQSGAELARPGASVKLSCKASGYTFTDNYINWMKQRPGQGLEWIGEIYPGSGNTYYNEKFKGKATLTADKSSSTAYMQLSSLTSEESAVYFCARSPNLRLYYFDYWGQGTTLTVSS
VL: MVSTSQLLGLLLFWTSASRCDIVMTQSPATLSVTPGDRVSLSCRASQSINDYLYWYQQKLHESPRLLIKFASHSISGIPSRFSGSGSGSDFTLSINSVEPEDVGVYYCQNGHSFPLTFGAGTKLELK
tumor volume ([1]; antibodies without Erbitux): reduced tumor volume
tumor volume ([1]; in combination with Erbitux): reduced tumor volume more than administration of Erbitux alone
tyrosine phosphorylation level of HER2 (HER2 [2]; N87 cells): did not affect the level of tyrosine phosphorylation for EGFR or HER2
tyrosine phosphorylation levels of HER2 (HER2 [2]; ZR75-30 cells, 20 μg/ml antibody): did not affect tyrosine phosphorylation levels of HER2
autophosphorylation of HER3 (HER3 [3]): inhibited autophosphorylation of HER3 in all HER3 positive cell lines except for Panc1; also recorded: inhibited autophosphorylation of HER3 in all HER3 positive cell lines, except Panc 1
tyrosine phosphorylation levels of HER3 (HER3 [4]; A549 cells, without Erlotinib): reduced the tyrosine-phosphorylation levels of HER3
tyrosine phosphorylation of HER3 (HER3 [4]; N87 cells, without lapatinib): reduced the tyrosine phosphorylation of HER3
tyrosine phosphorylation levels of HER3 (HER3 [4]; ZR75-30 cells, without lapatinib): reduced the tyrosine phosphorylation levels of HER3
tumor volume ([5]; antibodies or lapatinib alone): had the greatest tumor volume reducing effect; also recorded: reduces tumor volume
tumor volume ([5]; in combination with lapatinib): synergistically reduces tumor volume
inhibition of ligand-dependent activation of HER3 (HER3 [6]): capable of inhibiting ligand-dependent activation of HER3 to a lesser extent than the ligand-dependent 3D4 antibody
apoptosis of DR5-resistant ZR75-1 cells [8]: apoptosis of the DR5-resistant ZR75-1 cells was observed
autophosphorylation of HER2, 1A5 with lapatinib (HER2 [9]; in combination with lapatinib): significantly reduced levels of HER2 autophosphorylation; also recorded: reduced the levels of HER2 autophosphorylation to a greater extent than the 1A5 antibody or lapatinib alone
autophosphorylation of HER2 (HER2 [9]; single agents): partially inhibited autophosphorylation of HER2
tumor volume [10]: synergistically reduces tumor volume
inhibition of ligand-independent activation of HER3 in a panel of human cancer cell lines (HER3 [11]; 20 μg/ml 1A5, 24 hours): inhibition of ligand-independent activation of HER3 in a panel of human cancer cells lines
inhibition of autophosphorylation of HER3 (HER3 [11]; N87, BT474, ZR75-30, Panc 2.03 cells, increasing concentrations, 24 hours): capable of inhibiting autophosphorylation of HER3 to a greater extent than the ligand-dependent 3D4 antibody; also recorded: dose-dependent inhibition of ligand-independent activation (autophosphorylation) of HER3
epitopes of HER3 bound (recombinant soluble HER3 [12]): bind different epitopes of HER3; also recorded: recognize different epitopes on HER3
binding specificity by ELISA [13]: specifically bind HER3; also recorded: specific binding
blocking of NRG1 binding to HER3 (flow cytometry) [14]: failed to block NRG1 binding to HER3; also recorded: does not block ligand binding to HER3
tyrosine phosphorylation levels of EGFR (EGFR [15]; A549 cells, 20 μg/ml antibody, without Erlotinib): did not affect tyrosine phosphorylation levels of EGFR
tyrosine phosphorylation level of EGFR (EGFR [15]; N87 cells, 20 mg/ml antibody, without lapatinib): did not affect the level of tyrosine phosphorylation for EGFR or HER2
blocking of NRG1 binding to HER3 (ELISA) (recombinant soluble HER3 [16]): failed in block NRG1 binding to HER3; also recorded: does not block ligand binding to HER3
autophosphorylation of EGFR, 1A5 with erlotinib (EGFR [17]; in combination with erlotinib): capable of enhancing the inhibitory activity of erlotinib; also recorded: able to enhance the inhibitory activity of erlotinib
autophosphorylation of EGFR, 1A5 with lapatinib (EGFR [17]; in combination with lapatinib): not able to enhance the activity of lapatinib
autophosphorylation of EGFR (EGFR [17]; single agents): partially inhibited EGFR autophosphorylation in a HER3-dependent fashion
tumor volume [18]: synergistically reduces tumor volume
